Results from publication PMC10179534, “Maize Transcription Factor ZmHsf28 Positively Regulates Plant Drought Tolerance”.

B1: pZmRD21 HSE probe (dsDNA)
DNA 1: TATCGGTTTTTTTAGAAGATATTATGGC
DNA 2: GCCATAATATCTTCTAAAAAAACCGATA
B2: pZmCAT1 HSE probe (dsDNA)
DNA 1: GAAGATGAGCTTCTAGGACTGTTAGA
DNA 2: TCTAACAGTCCTAGAAGCTCATCTTC
B3: pZmAAO4 HSE probe (dsDNA)
DNA 1: TCTTAATCTCCTAGAAAAATACGGT
DNA 2: ACCGTATTTTTCTAGGAGATTAAGA
B4: pZmAOS1 HSE probe (dsDNA)
DNA 1: GTCAAGTCGGGTCTAGAAACTCATAGGCA
DNA 2: TGCCTATGAGTTTCTAGACCCGACTTGAC
B5: pZmZEP1 HSE probe (dsDNA)
DNA 1: GGGTGTTTTTCTGGAATCATGCA
DNA 2: TGCATGATTCCAGAAAAACACCC

Target: ZmHsf28 (Zea mays, UniProt K7V9Y4 1-267)
Assay: EMSA; Chemiluminescence EMSA kit (Beyotime); buffer, salt, pH and temperature not stated; unlabeled probes as competitors
Settings: protein: recombinant; tags: His (pET28a, Ni-NTA); chain copies: 3; blunt

Sequence of ZmHsf28 (K7V9Y4 entry or part of it): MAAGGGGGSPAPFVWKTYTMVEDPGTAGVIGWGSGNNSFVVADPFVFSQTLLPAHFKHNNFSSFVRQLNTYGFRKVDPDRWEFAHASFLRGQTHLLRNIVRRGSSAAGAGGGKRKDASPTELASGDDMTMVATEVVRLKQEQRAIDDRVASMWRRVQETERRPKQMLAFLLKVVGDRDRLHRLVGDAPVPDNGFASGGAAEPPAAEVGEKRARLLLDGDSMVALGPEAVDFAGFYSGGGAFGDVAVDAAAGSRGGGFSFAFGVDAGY

| Binder | binding result |
| --- | --- |
| B1 | binds |
| B2 | binds |
| B3 | binds |
| B4 | binds |
| B5 | binds |
